The values below come from patent US20050214302A1, “Use of emmprin antagonists for the treatment of diseases associated with excessive angiogenesis” (priority 2004, published 2005).

In one test the test system is NHLF cells. The experiment in a line: Recombinant EMMPRIN stimulation of MMP-1 production by NHLF cells. The class given is cell-based, human. Conditions: same treatment (20 μg/ml EMMPRIN).
In test [1] the test system is angiogenesis in Matrigel plugs. The experiment in a line: Matrigel plug angiogenesis assay in vivo. Conditions: suboptimal doses of FGF or VEGF, mice, expected. An excerpt:
The role of EMMPRIN in angiogenesis will be directly investigated in vivo using Matrigel plug assays. Matrigel is a solubilized basement membrane preparation extracted from the Engel-Holm-Swarm (EHS) mouse sarcoma, a tumor rich in extracellular matrix proteins. The major component is laminin, but Matrigel also contains trace amounts of fibroblast growth factor, TGF-beta, tissue plasminogen activator, and other growth factors that occur naturally in the EHS tumor. Matrigel is the basis for several types of tumor cell invasion assays and provides the necessary substrate for the study of angiogenesis. Matrigel forms a soft gel plug when injected subcutaneously into mice or rats and supports an intense vascular response when supplemented with angiogenic factors.
Matrigel plugs containing suboptimal doses of angiogenic growth factors, such as basic fibroblast growth factor (FGF), or vascular endothelial cell growth factor (VEGF) can be implanted into mice to induce angiogenesis in vivo. Some of these plugs are supplemented with various doses of recombinant EMMPRIN.

The test system of the next test is HMVEC-L cells. The experiment in a line: Recombinant EMMPRIN stimulation of MMP-1 production by HMVEC-L cells (MMP-1 activity kit). Format: cell-based, human. How it is done:
HMVEC-L cells were obtained from Clonetics, Walkersville, Md. (Cat# CC-2527, Lot# 8F1528). HMVEC-L cells were cultured under conditions recommended by the supplier. Briefly, cells were cultured in Endothelium Cell Growth Medium MV (EGM-2 MV, Clonetics, Cat#CC-3202) containing human epithelial growth factor (hEGF), hydrocortisone, human basic fibroblast growth factor (hFGF-B), vascular endothelial growth factor (VEGF), human insulin-like growth factor-1 (hIGF-1), ascorbic acid, gentamicin, 5% FBS, at 37° C., 5% CO2.
Early passage cells (less than passage 3) were trypsinized and washed with RPMI-1640 once. Cells were resuspended in Dilution Medium (DM−Fibroblast Basic Medium+2% FBS) at a concentration of 5×100,000 cells/ml. 100 μl of the cell suspension containing 50,000 cells was added into each well in a 96 well cell culture plate. […]
Quantitative detection of MMP-1 activity in the conditioned medium was carried out using Human MMP-1 Activity Kit (R&D Systems, Minneapolis, Minn.) (Cat#F1M00). […] MMP substrate added into each well was cleaved by active MMP-1 and the resulting fluorescence was determined using SpectraFluor Plus Plate Reader (TECAN, Zurich, Switzerland) (Cat# F129005, Ser# 94747) with the following parameters: excitation wavelength at 320 nm and emission wavelength at 405 nm.

B1: recombinant EMMPRIN: recombinant protein corresponding to the extracellular domain of human EMMPRIN, produced in NSO cells (R&D Systems) (protein, UniProt P35613 138-323, looked up)
extracellular domain: EPGTVFTTVEDLGSKILLTCSLNDSATEVTGHRWLKGGVVLKEDALPGQKTEFKVDSDDQWGEYSCVFLPEPMGTANIQLHGPPRVKAVKSSEHINEGETAMLVCKSESVPPVTDWAWYKITDSEDKALMNGSESRFFVSSSQGRSELHIENLNMEADPGQYRCNGTSSKGSDQAIITLRVRSHLA
modifications: extracellular domain
For the molecule B1, the “MMP-1 produced by NHLF cells relative to HMVEC-L” value in the test with NHLF cells was “only half of that amount”. The “Angiogenesis in Matrigel plugs supplemented with recombinant EMMPRIN” value in test [1] is reported as “increase in angiogenesis”. Moreover, the “Stimulation of MMP-1 production in endothelial cells (result in words)” value with HMVEC-L cells (0.08-20 μg/ml EMMPRIN, 1 day and 3 days, FIG. 2) was “dose-dependently stimulated MMP-1 production”. Moreover, the “MMP-1 produced by HMVEC-L cells” value in the test on HMVEC-L cells (treated with 20 μg/ml EMMPRIN) is given as “approximately 40 ng/ml”.
